The record followed here is patent publication US20140161804A1 (AbbVie / Abbott, published 2014).

Where a chain is given by its changes, count along the chain named.

The target in assay [1] is T1, Human TNF (human, UniProt P01375 77-233).
T1 construct: Biotinylated in the ELISA; purified recombinant protein in SPR; also called h TNF; huTNF
In words: ELISA, captured DVD-Ig, biotin-human TNF titrated. On the procedure: The following protocol is used to characterize the binding of TNF/IL-17 DVD-Ig proteins to human TNF and IL-17 by enzyme-linked immunosorbent assay (ELISA). An ELISA plate was coated with 50 μl per well of goat anti mouse IgG-Fc at 2 μg/ml, overnight at 4° C. The plate was washed 3 times with PBS/Tween. 50 μl Mab diluted to 1 μg/ml in PBS/0.1% BSA was added to appropriate wells and incubated for 1 hour at room temperature (RT). The plate was washed 3 times with PBS/Tween. 50 μl of serial diluted biotin-human TNF or IL-17 was added to appropriate wells and incubated for 1 hour at RT. The plate was washed 3 times with PBS/Tween. 50 μl of streptavidin-HRP diluted 1:10,000 in PBS/0.1% BSA was added to appropriate wells and incubated for 1 hour at RT. The plate was washed 3 times with PBS/Tween. 50 μl of TMB was added to appropriate wells and the reaction allowed to proceed for 1 minute. The reaction was stopped with 50 μl/well 2N H₂SO₄ and the absorbance read at 450 nm.
(In general: ELISA stands for enzyme-linked immunosorbent assay.)

Assay [2] deals with T1, Human TNF. As to the kind of experiment: cell-based or functional assay.
Assay [3] deals with T2, Human IL-17A (human, UniProt Q16552 20-155, limits assumed).
T2 construct: Biotinylated in the ELISAs; purified recombinant protein in SPR; also called hIL17A; hIL-17
In words: ELISA, captured DVD-Ig, biotin-human IL-17 titrated. Summed up:
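Plate coated with goat anti-mouse IgG-Fc, then antibody captured at 1 μg/ml; serially diluted biotinylated human TNF or IL-17 added 1 h at RT. Bound ligand detected with streptavidin-HRP and TMB, absorbance at 450 nm.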

Another assay deals with T3, Rhesus TNFa (rhesus, UniProt P48094 77-233).
T3 construct: also called Rhesus TNF-alpha
In words: SPR (Biacore T200), DVD-Ig captured by anti-human IgG Fc, antigen in solution. On the procedure:
(§1) The binding of antibodies to purified recombinant IL-17 and TNFα proteins were determined by surface plasmon resonance-based measurements with a Biacore® T200 instrument (GE Healthcare) using running HBS-EP (10 mM HEPES [pH 7.4], 150 mM NaCl, 3 mM EDTA, and 0.005% surfactant P20) containing 0.1 mg/ml BSA at 25° C. All chemicals were obtained from Biacore® AB (GE Healthcare) or otherwise from a different source as described in the text. Approximately 5000 RU of goat anti-human IgG (Fcγ) fragment specific polyclonal antibody (Pierce Biotechnology Inc, Rockford, Ill.) diluted in 10 mM sodium acetate (pH 4.5) was directly immobilized across a CM5 research grade biosensor chip using a standard amine coupling kit according to manufacturer's instructions and procedures at 25 ug/ml. Unreacted moieties on the biosensor surface were blocked with ethanolamine. Modified carboxymethyl dextran surface in flowcell 2, 3 and 4 were used as a reaction surface. Modified carboxymethyl dextran with goat IgG in flow cell 1 was used as the reference surface. For kinetic analysis, rate equations derived from the 1:1 Langmuir binding model were fitted simultaneously to association and dissociation phases of all six injections (using global fit analysis with local float for Rmax) with the use of Biacore T200 Evaluation software v.1.0. Purified antibodies were diluted in HEPES-buffered saline for capture across goat anti-human IgG specific reaction surfaces. Antibodies to be captured as ligand (1-5 μg/ml) were injected over reaction matrices at a flow rate of 50 μl/minute. Association phase was monitored for 5 minutes, while dissociation phase was monitored for 10-60 minutes to accommodate for slower off-rates. The association and dissociation rate constants, ka (unit M-1 s-1) and kd (unit s-1) were determined under a continuous flow rate of 50 μl/minute. Rate constants were derived by making kinetic binding measurements at six different antigen concentrations ranging from 0.78 nM to 100 nM, depending on the species of IL-17 or TNFα tested. The association ka, dissociation rate kd and equilibrium dissociation constant KD were calculated with the use of the same Biacore T200 Evaluation software v.1.0.
On the technique in general: SPR reads the build-up and loss of mass on a sensor chip optically.

The target of the next assay is T4, Cynomolgus monkey IL-17A (cynomolgus monkey, UniProt A0A2K5TTB0 24-155).
T4 construct: also called Cyno IL-17AA; Cyno IL17AA
The description is as above. Here is the method: as §1

The target of assay [4] is T2, Human IL-17A. Described as above. On the procedure:
as §1

The target of assay [5] is T1, Human TNF. The description is as above. On the procedure: as §1
The target of assay [6] is T1, Human TNF. In words: in vitro display selection on recombinant human TNF.

T4 sequence (A0A2K5TTB0 entry or part of it): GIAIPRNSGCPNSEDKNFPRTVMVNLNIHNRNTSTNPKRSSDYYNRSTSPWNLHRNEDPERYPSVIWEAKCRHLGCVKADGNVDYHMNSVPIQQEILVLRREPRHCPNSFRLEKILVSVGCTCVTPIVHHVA
T1 sequence (P01375 77-233 limits assumed): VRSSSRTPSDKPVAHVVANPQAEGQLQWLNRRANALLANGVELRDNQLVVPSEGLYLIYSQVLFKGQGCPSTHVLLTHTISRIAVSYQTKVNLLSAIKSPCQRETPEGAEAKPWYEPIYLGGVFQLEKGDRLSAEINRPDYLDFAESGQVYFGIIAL
T2 sequence (Q16552 20-155 limits assumed): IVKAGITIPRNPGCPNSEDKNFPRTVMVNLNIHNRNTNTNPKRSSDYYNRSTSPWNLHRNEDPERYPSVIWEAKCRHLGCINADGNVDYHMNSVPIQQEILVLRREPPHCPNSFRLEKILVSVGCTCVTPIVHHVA
T3 sequence (P48094 77-233 limits assumed): as the sequence (P01375 77-233 limits assumed) above, with R44T, T72N, R138L counted along it

B1: hMAK199-1-h10F7-M10.8 DVD-Ig (bispecific antibody, human IgG1, kappa, L234A L235A)
heavy: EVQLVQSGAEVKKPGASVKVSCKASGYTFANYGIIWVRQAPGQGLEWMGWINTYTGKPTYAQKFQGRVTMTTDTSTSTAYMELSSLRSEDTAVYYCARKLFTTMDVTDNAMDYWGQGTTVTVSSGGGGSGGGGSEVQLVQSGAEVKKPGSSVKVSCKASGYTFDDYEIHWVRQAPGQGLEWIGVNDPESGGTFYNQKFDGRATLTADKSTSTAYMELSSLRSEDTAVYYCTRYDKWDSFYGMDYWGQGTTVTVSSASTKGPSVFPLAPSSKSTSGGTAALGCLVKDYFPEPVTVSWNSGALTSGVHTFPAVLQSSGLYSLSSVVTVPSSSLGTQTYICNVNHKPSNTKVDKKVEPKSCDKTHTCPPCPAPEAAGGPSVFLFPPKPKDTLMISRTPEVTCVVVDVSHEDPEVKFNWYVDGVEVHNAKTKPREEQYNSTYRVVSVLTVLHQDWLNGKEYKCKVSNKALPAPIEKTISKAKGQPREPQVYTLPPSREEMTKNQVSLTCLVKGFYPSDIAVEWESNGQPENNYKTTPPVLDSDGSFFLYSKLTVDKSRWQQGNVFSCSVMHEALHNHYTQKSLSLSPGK
light: DIQMTQSPSSLSASVGDRVTITCRASQDISQYLNWYQQKPGKAPKLLIYYTSRLQSGVPSRFSGSGSGTDFTLTISSLQPEDFATYFCQQGNTWPPTFGQGTKLEIKRGGSGGGGSGDIQMTQSPSSLSASVGDRVTITCSASSGSISYIDWFQQKPGKAPKRLIYATFELASGVPSRFSGSGSGTDFTLTISSLQPEDFATYYCHQLGSYPDTFGQGTKLEIKRTVAAPSVFIFPPSDEQLKSGTASVVCLLNNFYPREAKVQWKVDNALQSGNSQESVTEQDSKDSTYSLSSTLTLSKADYEKHKVYACEVTHQGLSSPVTKSFNRGEC
notes: DVD-Ig; IgG1 234,235 mut, kappa; GS10 linkers; also called HMAK199-1-GS10-H10F7-M10 DVD
As to B1, the results for the 50% effective concentration (EC50) in the assay with Human TNF [1] and in the assay with Human IL-17A [3] were 0.22 nM and 0.081 nM, respectively. Also, the “Potency IC50 (nM), L929 bioassay, human TNF” value (“Potency IC50 (nM)” for short) with Human TNF [2] was 0.037 nM.

B2: hMAK199-1-h10F7-M11.8 DVD-Ig wt (bispecific antibody, human IgG1, kappa)
heavy: not shown
light: B1 light with S141R, S146I, E170D, F188Y, H206R, L208V, D213E
notes: DVD-Ig; wild-type IgG1, kappa; GS10 linkers; Uncertain; also called HMAK199-1-h10F7-M11.8 HC DVD wt
As to B2, the EC50 – broadly, the midpoint of the concentration-response curve – with Human TNF [1] came out at 0.095 nM; in the assay with Human IL-17A [3], 0.088 nM. Moreover, the Kd (commonly the free concentration of one partner at which half of the binding sites on the other are occupied at equilibrium, for simple one-to-one binding) was found to be 0.0137 nM with Rhesus TNFa, 4.44 pM with Cynomolgus monkey IL-17A, 0.0257 nM with Human IL-17A [4] and 5.61 pM with Human TNF [5]. The koff – broadly, a measure of how fast the partners let go of each other – in the assay with Rhesus TNFa is 3.03e-05 s⁻¹; with Cynomolgus monkey IL-17A it was 1.18e-06 s⁻¹; in the assay with Human IL-17A [4], 7.9e-06 s⁻¹; with Human TNF [5], 2.4e-05 s⁻¹. The on-rate constant (kon) (in general, the rate constant with which the complex forms) with Rhesus TNFa was 2.2e+06 M⁻¹ s⁻¹; in the assay with Cynomolgus monkey IL-17A it was 267000 M⁻¹ s⁻¹; in the assay with Human IL-17A [4], 307000 M⁻¹ s⁻¹; in the assay with Human TNF [5], 4.28e+06 M⁻¹ s⁻¹. Besides, the “Potency IC50 (nM)” value in the assay with Human TNF [2] worked out at 0.033 nM.

B3: hMAK199-1-h10F7-M11.8 QL DVD-Ig (bispecific antibody, human IgG1, kappa, L234A L235A)
heavy: EVQLVQSGAEVKKPGASVKVSCKASGYTFANYGIIWVRQAPGQGLEWMGWINTYTGKPTYAQKFQGRVTMTTDTSTSTAYMELSSLRSEDTAVYYCARKLFTTMDVTDNAMDYWGQGTTVTVSSGGGGSGGGGSEVQLVQSGAEVKKPGSSVKVSCKASGYTFTDYEIHWVRQAPGQGLEWMGVNDPESGGTFYNQKFDGRVTLTADESTSTAYMELSSLRSEDTAVYYCTRYSKWDSFDGMDYWGQGTTVTVSSASTKGPSVFPLAPSSKSTSGGTAALGCLVKDYFPEPVTVSWNSGALTSGVHTFPAVLQSSGLYSLSSVVTVPSSSLGTQTYICNVNHKPSNTKVDKKVEPKSCDKTHTCPPCPAPEAAGGPSVFLFPPKPKDQLMISRTPEVTCVVVDVSHEDPEVKFNWYVDGVEVHNAKTKPREEQYNSTYRVVSVLTVLHQDWLNGKEYKCKVSNKALPAPIEKTISKAKGQPREPQVYTLPPSREEMTKNQVSLTCLVKGFYPSDIAVEWESNGQPENNYKTTPPVLDSDGSFFLYSKLTVDKSRWQQGNVFSCSVLHEALHNHYTQKSLSLSPGK
light: B1 light with S141R, S146I, E170D, F188Y, H206R, L208V, D213E
notes: DVD-Ig; IgG1 (234,235) mut with QL mutations, kappa; GS10 linkers
In the assay with Human TNF [1], B3 registered an EC50 of 0.119 nM. Further, in the assay with Human IL-17A [4], the Kd was less than 0.00452 nM, the koff is less than 1e-06 s⁻¹ and the kon is 221000 M⁻¹ s⁻¹. Further, the “Potency IC50 (nM)” value in the assay with Human TNF [2] came to 0.027 nM. Further, the EC50 with Human IL-17A [3] was found to be 0.142 nM.

B4: hMAK199-1-h10F7-M11.8 DVD-Ig (bispecific antibody, human IgG1, kappa, L234A L235A)
heavy: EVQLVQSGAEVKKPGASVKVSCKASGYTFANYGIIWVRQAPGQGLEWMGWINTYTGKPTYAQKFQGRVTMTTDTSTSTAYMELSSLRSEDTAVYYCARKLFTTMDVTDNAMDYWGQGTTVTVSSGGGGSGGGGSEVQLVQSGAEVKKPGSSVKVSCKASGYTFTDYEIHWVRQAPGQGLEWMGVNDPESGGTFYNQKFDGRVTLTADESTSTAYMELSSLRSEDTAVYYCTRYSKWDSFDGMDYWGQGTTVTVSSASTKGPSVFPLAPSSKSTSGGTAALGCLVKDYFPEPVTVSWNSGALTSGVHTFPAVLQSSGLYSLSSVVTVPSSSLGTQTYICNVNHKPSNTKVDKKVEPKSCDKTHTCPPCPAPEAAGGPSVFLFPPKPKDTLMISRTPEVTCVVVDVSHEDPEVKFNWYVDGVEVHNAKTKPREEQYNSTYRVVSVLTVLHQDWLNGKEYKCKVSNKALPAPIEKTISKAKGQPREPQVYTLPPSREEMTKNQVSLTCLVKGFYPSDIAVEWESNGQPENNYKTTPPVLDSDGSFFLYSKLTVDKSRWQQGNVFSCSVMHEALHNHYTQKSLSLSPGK
light: B1 light with S141R, S146I, E170D, F188Y, H206R, L208V, D213E
notes: DVD-Ig; IgG1 234,235 mut, kappa; GS10 linkers; also called HMAK199-1-GS10-H10F7-M11 DVD
Take B4: the EC50 turned out to be 0.22 nM with Human TNF [1] and 0.078 nM with Human IL-17A [3]. The Kd with Rhesus TNFa is 0.0108 nM; with Cynomolgus monkey IL-17A it was 7.22 pM; in the assay with Human IL-17A [4], 0.0337 nM; in the assay with Human TNF [5], 5.5 pM. Moreover, the dissociation rate constant (koff) with Rhesus TNFa was determined as 2.39e-05 s⁻¹; with Cynomolgus monkey IL-17A, 2.15e-06 s⁻¹; in the assay with Human IL-17A [4], 1.11e-05 s⁻¹; with Human TNF [5], 2.37e-05 s⁻¹. The kon with Rhesus TNFa came to 2.21e+06 M⁻¹ s⁻¹; with Cynomolgus monkey IL-17A it was 299000 M⁻¹ s⁻¹; in the assay with Human IL-17A [4], 329000 M⁻¹ s⁻¹; with Human TNF [5], 4.31e+06 M⁻¹ s⁻¹. In the assay with Human TNF [2], the “Potency IC50 (nM)” value was 0.031 nM.

B5: AE11-1 (antibody, V domains shown)
VH: EVQLVQSGAEVKKPGASVKVSCKASGYTFTSYDVNWVRQATGQGLEWMGWMNPNSGNTGYAQKFQGRVTITADESTSTAYMELSSLRSEDTAVYYCAIFDSDYMDVWGKGTLVTVSS
VL: SYELTQPPSVSLSPGQTARITCSGDALPKQYAYWYQQKPGQAPVLVIYKDTERPSGIPERFSGSSSGTTVTLTISGAQAEDEADYYCQSADSSGTSWVFGGGTKLTVL
notes: Fully human anti-TNF antibody isolated by in vitro display; also called AE11-1 VH; AE11-1 VL
B5: in the assay with Human TNF [6], the binding result is recorded as “binds”.
